Laboratory results reported in US20210347821A1 (published 2021).
Where no end group is shown, it is not given here. The star is where a group is joined. NPEG4 = 4-unit NPEG linker joining two HWLKV peptides through their N-termini, carries the CPP on its nitrogen; Biotin = O=C1N[C@H]2[C@H](CS[C@H]2CCCCC(=O)*)N1

Tests used:
GFP-PICK1 A87L [1] = target: T1, GFP-PICK1 A87L (UniProt Q9EP80 1-416); assay: colocalization in heterologous cells
T1 construct: also called PDZ deficient mutant GFP-PICK1 A87L; not shown: GFP tag

[2] = target: T2, Protein Interacting with C Kinase-1 (PICK1), purified recombinant (UniProt Q9EP80 1-416); assay: fluorescence polarization competition, tracer 5FAM-TAT-(C5)
T2 construct: also called purified PICK1

[3] = target: T2, Protein Interacting with C Kinase-1 …; assay: fluorescence polarization competition, tracer 5-FAM-TAT-C5
GFP-PICK1 A87L [4] = target: T1, GFP-PICK1 A87L; assay: pull-down from HEK293 cells
[5] = target: T3, PICK1 (endogenous, mouse spinal cord) (mouse, UniProt Q62083 1-416); assay: pull-down from mouse spinal cord after intrathecal administration
T3 construct: also called PICK1 protein
T3 sequence (Q62083 whole entry): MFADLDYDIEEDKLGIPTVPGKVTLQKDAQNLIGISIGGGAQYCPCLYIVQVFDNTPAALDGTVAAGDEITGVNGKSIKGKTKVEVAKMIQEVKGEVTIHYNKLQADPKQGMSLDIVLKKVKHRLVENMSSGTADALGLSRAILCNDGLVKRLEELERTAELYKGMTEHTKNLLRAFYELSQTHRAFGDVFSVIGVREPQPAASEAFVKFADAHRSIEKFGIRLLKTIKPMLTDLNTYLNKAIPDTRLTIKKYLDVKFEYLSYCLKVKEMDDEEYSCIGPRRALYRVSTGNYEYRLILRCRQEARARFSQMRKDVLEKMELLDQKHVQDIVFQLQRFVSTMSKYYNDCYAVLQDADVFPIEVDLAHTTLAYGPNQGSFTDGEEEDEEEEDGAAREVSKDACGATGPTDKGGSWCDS

T2 sequence (Q9EP80 whole entry): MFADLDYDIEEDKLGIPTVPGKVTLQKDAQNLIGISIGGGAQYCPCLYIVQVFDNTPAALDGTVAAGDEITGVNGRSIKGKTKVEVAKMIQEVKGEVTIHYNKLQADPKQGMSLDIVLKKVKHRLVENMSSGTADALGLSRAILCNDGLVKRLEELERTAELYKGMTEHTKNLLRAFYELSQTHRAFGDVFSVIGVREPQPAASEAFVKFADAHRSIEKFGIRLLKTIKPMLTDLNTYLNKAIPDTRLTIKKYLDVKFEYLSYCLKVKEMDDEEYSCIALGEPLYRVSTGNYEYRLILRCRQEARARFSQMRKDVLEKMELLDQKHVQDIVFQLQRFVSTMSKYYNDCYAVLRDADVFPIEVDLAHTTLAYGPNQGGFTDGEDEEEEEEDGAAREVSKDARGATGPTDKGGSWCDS
T1 sequence (Q9EP80 whole entry A87L): as the sequence (Q9EP80 whole entry) above, with A87L counted along it

Binder | Fold affinity change (against TAT-P4-(C5)2) [3] [fold] | Ki [3] [nM] | also measured
TAMRA-YGRKKRRQRRR-PEG4-(HWLKV)2 (not fully specified; N-terminus linked to the NPEG4 linker that joins the two copies; TAMRA on the N-terminus of the TAT sequence; conjugated to the NPEG4 linker, also called TMR-TAT-P4-(C5)2; TMR-TAT11-P4-(C5)2) peptide 1: YGRKKRRQRRR peptide 2: HWLKV | – | – | binding result (GFP-PICK1 A87L [1]): no binding
TAT11-PEG4-(DATC5)2 (not fully specified (C-terminus), Branched compound: two HWLKV peptides joined through their N-termini by a 4-unit NPEG linker that carries the CPP; also called TAT-P4-(C5)2) peptide 1: YGRKKRRQRRR peptide 2: NPEG4-HWLKV | 1 | 4 | fold shift in affinity [2]: 301 fold
N-terminally biotinylated TAT-P4-(C5)2 (not fully specified, also called Biotin-TAT-P4-(C5)2) peptide 1: Biotin-YGRKKRRQRRR peptide 2: HWLKV | – | – | binding result (GFP-PICK1 A87L [4]): no binding; binding result [5]: binds
PNT-P4-(C5)2 (not fully specified, Branched compound as TAT-P4-(C5)2, with Penetratin as CPP; also called Pent-P4-(C5)2; PNT-peptide) peptide 1: RQIKIWFQNRRMKWKK peptide 2: HWLKV | 1.7 | – | –
MAP-P4-(C5)2 (not fully specified, also called MAP-NPEG4-(HWLKV)2; MAP-peptide) peptide 1: KLALKLALKALKAALKLA peptide 2: HWLKV | 0.8 | 5.1 | –
